Broadly, the Km is the concentration of substrate that gives half-maximal velocity. One may read the stoichiometry N as the number of molecules, sites or subunits per partner or assembly.

We go through 4 molecules from publication PMC9009071, “Pyruvate kinase, a metabolic sensor powering glycolysis, drives the metabolic control of DNA replication” (BMC Biology, 2022).

The target in one series is T1, PykA (Bacillus subtilis, UniProt P80885).
T1 construct: gene pyk; full length, 585 residues (1755 bp); N-terminal His-MBP tag removed by TEV; E. coli Rosetta(DE3); homotetramer
T1 sequence (P80885 2-585): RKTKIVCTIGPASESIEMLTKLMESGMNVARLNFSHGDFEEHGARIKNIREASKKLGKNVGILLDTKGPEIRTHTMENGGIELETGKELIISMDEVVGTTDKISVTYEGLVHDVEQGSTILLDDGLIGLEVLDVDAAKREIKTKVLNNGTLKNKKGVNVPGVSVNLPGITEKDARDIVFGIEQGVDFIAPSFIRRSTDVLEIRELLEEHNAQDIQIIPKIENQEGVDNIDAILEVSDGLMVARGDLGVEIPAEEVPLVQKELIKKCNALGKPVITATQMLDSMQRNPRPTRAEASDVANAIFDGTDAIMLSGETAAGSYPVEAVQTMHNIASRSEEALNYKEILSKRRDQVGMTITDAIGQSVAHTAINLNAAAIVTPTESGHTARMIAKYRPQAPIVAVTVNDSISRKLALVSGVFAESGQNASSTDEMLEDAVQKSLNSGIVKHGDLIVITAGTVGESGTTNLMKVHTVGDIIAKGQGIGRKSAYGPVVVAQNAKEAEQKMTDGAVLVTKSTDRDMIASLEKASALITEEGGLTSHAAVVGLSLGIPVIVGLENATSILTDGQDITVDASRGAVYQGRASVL
Description: LDH-coupled NADH oxidation at […] nm, Michaelis-Menten fit. The class given is biochemical. The settings on record: 2 mM ADP, 10 mM MgCl2, 50 mM KCl, 10 mM Tris-HCl pH 7.5, 25 °C; no effector added.

For a further series, the target named is T2, PykA (pyruvate kinase) (Bacillus subtilis, UniProt P80885 1-585).
T2 sequence: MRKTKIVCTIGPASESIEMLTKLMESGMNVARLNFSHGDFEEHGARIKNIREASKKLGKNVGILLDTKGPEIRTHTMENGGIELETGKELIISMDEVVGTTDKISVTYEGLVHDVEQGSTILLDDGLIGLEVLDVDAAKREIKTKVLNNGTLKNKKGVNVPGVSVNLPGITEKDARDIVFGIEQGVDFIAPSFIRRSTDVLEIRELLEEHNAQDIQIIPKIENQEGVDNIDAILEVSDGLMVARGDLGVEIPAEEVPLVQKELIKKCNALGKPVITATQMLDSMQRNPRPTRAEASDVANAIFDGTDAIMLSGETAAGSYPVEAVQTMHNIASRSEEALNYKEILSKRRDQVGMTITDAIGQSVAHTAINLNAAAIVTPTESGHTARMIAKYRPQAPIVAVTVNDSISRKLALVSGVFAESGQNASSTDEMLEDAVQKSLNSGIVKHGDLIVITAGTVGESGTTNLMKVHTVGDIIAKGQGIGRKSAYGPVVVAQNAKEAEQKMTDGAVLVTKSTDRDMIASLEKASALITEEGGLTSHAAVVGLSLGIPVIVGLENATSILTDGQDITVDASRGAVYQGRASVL
Kind of series: EMSA; 1,250 nM PykA tetramer, 1 nM DNA, 10 mM Mg2+, no DnaE; EMSA: 50 mM Tris-HCl pH 7.5, 50 mM NaCl, 10 mM MgCl2, 10 min at 37 °C, 1 nM DNA. The note with it: protein: recombinant; tags: none (N-terminal His-MBP removed by TEV); chain copies: 4; label: 5'-32P on the 15mer; 15mer pairs with the 3' half of the 30mer; template 5' overhang 15 nt.

Substrate in the series “purified protein”: C=C(OP(=O)(O)O)C(=O)O
Kind of series: purified protein. The format is biochemical, Bacillus subtilis. The note with it: 2 mM ADP, 10 mM MgCl2, 50 mM KCl, 10 mM Tris-HCl pH 7.5, 25 °C, no effector added, Hill coefficient n = 0.8111.

Series [1] concerns the molecule itself. Kind of series: native MS; purified PykA, 4 uM, in 200 mM ammonium acetate pH 6.8; nano-electrospray on a modified Q-Tof; self-association (tetramer).

For the molecule `C=C(OP(=O)(O)O)C(=O)O` [PEP], the Km at PykA was determined as 1700 µM.

B1: 15mer primer annealed to 30mer template (dsDNA)
DNA 1: AAGGGGGTGTGTGTG
DNA 2: ACACACACACACACACACACACACCCCCTT
For B1, the binding result in the series with PykA (pyruvate kinase) is “no binding”.

B2: PykA (Bacillus subtilis subsp. subtilis str. 168) (protein)
chain: RKTKIVCTIGPASESIEMLTKLMESGMNVARLNFSHGDFEEHGARIKNIREASKKLGKNVGILLDTKGPEIRTHTMENGGIELETGKELIISMDEVVGTTDKISVTYEGLVHDVEQGSTILLDDGLIGLEVLDVDAAKREIKTKVLNNGTLKNKKGVNVPGVSVNLPGITEKDARDIVFGIEQGVDFIAPSFIRRSTDVLEIRELLEEHNAQDIQIIPKIENQEGVDNIDAILEVSDGLMVARGDLGVEIPAEEVPLVQKELIKKCNALGKPVITATQMLDSMQRNPRPTRAEASDVANAIFDGTDAIMLSGETAAGSYPVEAVQTMHNIASRSEEALNYKEILSKRRDQVGMTITDAIGQSVAHTAINLNAAAIVTPTESGHTARMIAKYRPQAPIVAVTVNDSISRKLALVSGVFAESGQNASSTDEMLEDAVQKSLNSGIVKHGDLIVITAGTVGESGTTNLMKVHTVGDIIAKGQGIGRKSAYGPVVVAQNAKEAEQKMTDGAVLVTKSTDRDMIASLEKASALITEEGGLTSHAAVVGLSLGIPVIVGLENATSILTDGQDITVDASRGAVYQGRASVL
notes: full length, 585 residues (1755 bp); N-terminal His-MBP tag removed by TEV; E. coli Rosetta(DE3); homotetramer
For B2, the K0.5 in the series “purified protein” came out at 2.7 mM.

B3: Bacillus subtilis pyruvate kinase PykA (enzyme, UniProt P80885 1-585, looked up)
chain: MRKTKIVCTIGPASESIEMLTKLMESGMNVARLNFSHGDFEEHGARIKNIREASKKLGKNVGILLDTKGPEIRTHTMENGGIELETGKELIISMDEVVGTTDKISVTYEGLVHDVEQGSTILLDDGLIGLEVLDVDAAKREIKTKVLNNGTLKNKKGVNVPGVSVNLPGITEKDARDIVFGIEQGVDFIAPSFIRRSTDVLEIRELLEEHNAQDIQIIPKIENQEGVDNIDAILEVSDGLMVARGDLGVEIPAEEVPLVQKELIKKCNALGKPVITATQMLDSMQRNPRPTRAEASDVANAIFDGTDAIMLSGETAAGSYPVEAVQTMHNIASRSEEALNYKEILSKRRDQVGMTITDAIGQSVAHTAINLNAAAIVTPTESGHTARMIAKYRPQAPIVAVTVNDSISRKLALVSGVFAESGQNASSTDEMLEDAVQKSLNSGIVKHGDLIVITAGTVGESGTTNLMKVHTVGDIIAKGQGIGRKSAYGPVVVAQNAKEAEQKMTDGAVLVTKSTDRDMIASLEKASALITEEGGLTSHAAVVGLSLGIPVIVGLENATSILTDGQDITVDASRGAVYQGRASVL
notes: Pyruvate kinase PykA of Bacillus subtilis; 1755 bp fragment carrying the pykA gene amplified from genomic DNA and cloned in p2CT; theoretical monomer mass 62,314.9 Da; The forward primer PyKAF starts at the codon for Arg2 (AGA AAA ACT ...), so the first methionine is probably absent; A few vector residues probably remain after TEV cleavage; also called full length PykA; BsuPykA; source: E. coli …
For B3, the “stoichiometry N” value in series [1] stood at 4.
